# Assay results taken from the supplement of paper PMC9112550, “Optimization of the antimicrobial peptide Bac7 by deep mutational scanning” (BMC Biology, 2022).
# System: Escherichia coli TOP10
# Test: shrunken log2 fold change of peptide-encoding DNA abundance (4.5 h post-induction vs induction); higher = less antimicrobial activity (less host growth inhibition)
# Conditions: time post-induction: 4.5 h; library: site-saturation at positions 5, 18, 19, 20
# 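Further: peptides expressed intracellularly from a pBAD plasmid library in pooled LB shake-flask culture, induced with 0.3% L-arabinose, DNA abundance read by NGS, three biological replicates, DESeq2 with apeglm shrinkage.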
row,Sequence,shrunken log2 fold change
1,RRIRDRPPRLPRPRPRPRLPPRP,0.4
2,RRIRARPPRLPRPRPRPFNWPRP,0.0857
3,RRIRERPPRLPRPRPRPEYHPRP,-0.242
4,RRIRQRPPRLPRPRPRPELPPRP,-0.0769
5,RRIRDRPPRLPRPRPRPGTWPRP,0.475
6,RRIRTRPPRLPRPRPRPEVVPRP,0.292
7,RRIRKRPPRLPRPRPRPVKVPRP,0.432
8,RRIRPRPPRLPRPRPRPMMQPRP,-0.369
9,RRIRNRPPRLPRPRPRPYCPPRP,-0.187
10,RRIRQRPPRLPRPRPRPWQGPRP,-0.137
11,RRIRIRPPRLPRPRPRPYVFPRP,-0.0874
12,RRIRYRPPRLPRPRPRPRRPPRP,-0.0739
13,RRIRKRPPRLPRPRPRPMQAPRP,1.15
14,RRIRARPPRLPRPRPRPKRIPRP,0.122
15,RRIRPRPPRLPRPRPRPEASPRP,0.0221
16,RRIRRRPPRLPRPRPRPCWGPRP,0.0286
17,RRIRQRPPRLPRPRPRPWYDPRP,-0.138
18,RRIRDRPPRLPRPRPRPIWPPRP,0.0998
19,RRIRPRPPRLPRPRPRPKAHPRP,0.0759
20,RRIRERPPRLPRPRPRPLGHPRP,0.187
21,RRIRMRPPRLPRPRPRPEPNPRP,2.18
22,RRIRFRPPRLPRPRPRPHETPRP,-0.347
23,RRIRDRPPRLPRPRPRPMHMPRP,-0.0583
24,RRIRERPPRLPRPRPRPADWPRP,0.349
25,RRIRYRPPRLPRPRPRPVMGPRP,-0.0133

row,Sequence,shrunken log2 fold change
1,RRIRMRPPRLPRPRPRPMYAPRP,0.0486
2,RRIRRRPPRLPRPRPRPSQPPRP,0.104
3,RRIRVRPPRLPRPRPRPNLSPRP,-0.444
4,RRIRCRPPRLPRPRPRPWMNPRP,0.0105
5,RRIRHRPPRLPRPRPRPGTRPRP,-0.13
6,RRIRKRPPRLPRPRPRPSWDPRP,-0.164
7,RRIRERPPRLPRPRPRPNLTPRP,-0.171
8,RRIRMRPPRLPRPRPRPENEPRP,2.96
9,RRIRIRPPRLPRPRPRPFNPPRP,-0.0657
10,RRIRQRPPRLPRPRPRPPGHPRP,0.249
11,RRIRIRPPRLPRPRPRPDCWPRP,0.103
12,RRIRLRPPRLPRPRPRPTHWPRP,0.416
13,RRIRHRPPRLPRPRPRPTAAPRP,0.518
14,RRIRPRPPRLPRPRPRPNWFPRP,0.283
15,RRIRNRPPRLPRPRPRPRTFPRP,-0.078
16,RRIRPRPPRLPRPRPRPETNPRP,0.192
17,RRIRERPPRLPRPRPRPDNSPRP,-0.981
18,RRIRNRPPRLPRPRPRPGARPRP,0.582
19,RRIRARPPRLPRPRPRPFCPPRP,0.11
20,RRIRNRPPRLPRPRPRPKTPPRP,0.228
21,RRIRWRPPRLPRPRPRPTISPRP,0.21
22,RRIRARPPRLPRPRPRPMNAPRP,0.376
23,RRIRTRPPRLPRPRPRPASQPRP,0.0336
24,RRIRPRPPRLPRPRPRPPAIPRP,0.325
25,RRIRCRPPRLPRPRPRPREAPRP,0.521

row,Sequence,shrunken log2 fold change
1,RRIRARPPRLPRPRPRPGWRPRP,0.473
2,RRIRGRPPRLPRPRPRPLCEPRP,1.22
3,RRIRFRPPRLPRPRPRPYTRPRP,-0.369
4,RRIRKRPPRLPRPRPRPLQAPRP,1.34
5,RRIRYRPPRLPRPRPRPYTCPRP,-0.00145
6,RRIRIRPPRLPRPRPRPIVEPRP,0.0786
7,RRIRVRPPRLPRPRPRPCMSPRP,-0.0664
8,RRIRHRPPRLPRPRPRPKKYPRP,-0.806
9,RRIRFRPPRLPRPRPRPNADPRP,-0.055
10,RRIRWRPPRLPRPRPRPVRPPRP,0.305
11,RRIRYRPPRLPRPRPRPNTAPRP,-0.0149
12,RRIRPRPPRLPRPRPRPKDPPRP,0.165
13,RRIRDRPPRLPRPRPRPMQTPRP,0.0424
14,RRIRIRPPRLPRPRPRPSRVPRP,-0.0608
15,RRIRTRPPRLPRPRPRPEHTPRP,-0.174
16,RRIRPRPPRLPRPRPRPMEFPRP,0.00564
17,RRIRFRPPRLPRPRPRPIYVPRP,-0.871
18,RRIRIRPPRLPRPRPRPLHCPRP,-1.13
19,RRIRSRPPRLPRPRPRPTKVPRP,-0.213
20,RRIRRRPPRLPRPRPRPNLQPRP,-0.07
21,RRIRIRPPRLPRPRPRPKLCPRP,0.0563
22,RRIRVRPPRLPRPRPRPRPAPRP,0.678
23,RRIRNRPPRLPRPRPRPSFEPRP,-0.0494
24,RRIRHRPPRLPRPRPRPAPCPRP,0.288
25,RRIRDRPPRLPRPRPRPQEYPRP,-0.0984
